Measurements as given in US20140175018A1.
Bridge positions count the residues as written; N and C are the ends. Side chains are listed from the residue outwards. * marks the point of attachment. Biotin = O=C1N[C@H]2[C@H](CS[C@H]2CCCCC(=O)*)N1; PEG = not defined here

T1: chemokine (C-C motif) receptor 4 (CCR4) (human) (UniProt P51679)
T1 sequence (looked up): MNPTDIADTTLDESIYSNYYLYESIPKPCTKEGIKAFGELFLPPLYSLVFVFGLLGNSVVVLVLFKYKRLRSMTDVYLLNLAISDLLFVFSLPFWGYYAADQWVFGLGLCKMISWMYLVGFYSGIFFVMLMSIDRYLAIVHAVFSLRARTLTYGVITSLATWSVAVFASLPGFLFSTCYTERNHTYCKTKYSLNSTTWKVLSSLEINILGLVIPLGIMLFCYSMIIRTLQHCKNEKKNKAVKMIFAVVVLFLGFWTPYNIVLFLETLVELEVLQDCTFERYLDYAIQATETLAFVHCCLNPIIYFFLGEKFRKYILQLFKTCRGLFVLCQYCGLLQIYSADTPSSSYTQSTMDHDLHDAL

T2: chemokine (C-C motif) receptor 10 (CCR10) (human) (UniProt P46092)
T2 sequence (looked up): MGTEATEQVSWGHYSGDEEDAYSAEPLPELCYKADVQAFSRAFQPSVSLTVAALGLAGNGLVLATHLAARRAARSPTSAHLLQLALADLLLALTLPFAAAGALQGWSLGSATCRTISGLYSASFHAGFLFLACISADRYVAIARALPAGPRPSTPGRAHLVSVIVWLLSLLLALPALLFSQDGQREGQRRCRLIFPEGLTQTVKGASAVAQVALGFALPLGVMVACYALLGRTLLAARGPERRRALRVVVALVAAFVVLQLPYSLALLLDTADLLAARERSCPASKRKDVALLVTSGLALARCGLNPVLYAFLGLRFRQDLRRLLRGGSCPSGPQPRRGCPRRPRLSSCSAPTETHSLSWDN


Legend:
Experiment in all cases: cell-based or functional assay
[1] = molecular target: chemokine (C-X-C motif) receptor 3 (CXCR3) (human) (UniProt P49682)
Sequence of chemokine (C-X-C motif) receptor 3 (CXCR3) (human) (P49682 whole entry): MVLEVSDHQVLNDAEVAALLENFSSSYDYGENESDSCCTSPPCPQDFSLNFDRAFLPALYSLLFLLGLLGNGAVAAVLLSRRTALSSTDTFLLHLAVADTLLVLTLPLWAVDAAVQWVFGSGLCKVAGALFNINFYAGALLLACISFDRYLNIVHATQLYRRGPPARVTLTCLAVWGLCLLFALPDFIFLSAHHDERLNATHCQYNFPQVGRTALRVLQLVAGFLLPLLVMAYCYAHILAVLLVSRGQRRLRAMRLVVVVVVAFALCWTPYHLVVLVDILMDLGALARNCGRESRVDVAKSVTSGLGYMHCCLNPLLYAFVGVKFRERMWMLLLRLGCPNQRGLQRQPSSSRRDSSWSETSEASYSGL

[2] = molecular target: T1, chemokine (C-C motif) receptor 4 (CCR4) (human)
[3] = molecular target: T2, chemokine (C-C motif) receptor 10 (CCR10) (human)

Binder	EC50 (agonist activity, Aequorin assay) [1] [nM]	EC50 (agonist activity, Aequorin assay) [3] [nM]	also measured
biotinITAC (CXCL11): ITAC derivatised with Biotin at an additional C-terminal Lysine after a PEG spacer (ligand, X74 = PEG-K(Biotin)) FPMFKRGRCLCIGPGVKAVKVADIEKASIMYPSNNCDKIEVIITLKENKGQRCLNPKSKQARLIIKKVERKNFX	15.7	–	–
recombinant native MDC (ligand, UniProt O00626 25-93, looked up) GPYGANMEDSVCCRDYVRYRLPLRVVKHFYWTSDSCPRPGVVLLTFRDKEICADPRVPWVKMILNKLSQ	–	–	EC50 (agonist activity, Aequorin assay) [2]: 3.6 nM
recombinant native CTAC (ligand, UniProt Q9Y4X3 25-112, looked up) FLLPPSTACCTQLYRKPLSDKLLRKVIQVELQEADGDCHLQAFVLHLAQRSICIHPQNPSLSQWFEHQERKLHGTLPKLNFGMLRKMG	–	33.5	–

Continued, in another order:

EC50 (agonist activity, Aequorin assay) [1] [nM]	EC50 (agonist activity, Aequorin assay) [3] [nM]	Binder	also measured
0.7	–	recombinant native ITAC (ligand, UniProt O14625 22-94, looked up) FPMFKRGRCLCIGPGVKAVKVADIEKASIMYPSNNCDKIEVIITLKENKGQRCLNPKSKQARLIIKKVERKNF	–
–	49.4	biotinCTAC (CCL27): CTAC derivatised at Lys(87) with PEG-Biotin (ligand, disulfide 10-53, 9-38; reading uncertain) FLLPPSTACCTQLYRKPLSDKLLRKVIQVELQEADGDCHLQAFVLHLAQRSICIHPQNPSLSQWFEHQERKLHGTLPKLNFGMLRKK([PEG-Biotin])G-OH	–
